Experimental data as given in US20240301085A1.

Columns and labels:
[1] = biological target: monkey GPC3, full length, on HEK293T cells (monkey); assay: FACS on HEK293T-monkey GPC3 cells
[2] = biological target: monkey GPC3-His protein (monkey); assay: ELISA, coated monkey GPC3-His, antibody 10 nM
[3] = biological target: human GPC3, full length, on cells (human) (UniProt P51654); assay: FACS on CHO-K1 clone CHOK1-hGPC3.1C3
[4] = biological target: Polypeptide GC3pep of human GPC3 (Ala524-Lys563) (human); assay: ELISA, coated GC3pep, antibody 100 nM
Sequence of Polypeptide GC3pep of human GPC3 (Ala524-Lys563) (human) (peptide, as listed by the source): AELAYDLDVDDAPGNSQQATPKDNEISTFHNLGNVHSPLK

[5] = biological target: Polypeptide GC3pep of human GPC3 (Ala524-Lys563) (human); assay: ELISA, coated GC3pep, antibody 0.001 nM
[6] = biological target: murine GPC3-His protein (murine) (UniProt Q8CFZ4); assay: ELISA, coated murine GPC3-His, antibody 0.1 nM
Sequence of UniProt Q8CFZ4 (Q8CFZ4 25-558 limits assumed): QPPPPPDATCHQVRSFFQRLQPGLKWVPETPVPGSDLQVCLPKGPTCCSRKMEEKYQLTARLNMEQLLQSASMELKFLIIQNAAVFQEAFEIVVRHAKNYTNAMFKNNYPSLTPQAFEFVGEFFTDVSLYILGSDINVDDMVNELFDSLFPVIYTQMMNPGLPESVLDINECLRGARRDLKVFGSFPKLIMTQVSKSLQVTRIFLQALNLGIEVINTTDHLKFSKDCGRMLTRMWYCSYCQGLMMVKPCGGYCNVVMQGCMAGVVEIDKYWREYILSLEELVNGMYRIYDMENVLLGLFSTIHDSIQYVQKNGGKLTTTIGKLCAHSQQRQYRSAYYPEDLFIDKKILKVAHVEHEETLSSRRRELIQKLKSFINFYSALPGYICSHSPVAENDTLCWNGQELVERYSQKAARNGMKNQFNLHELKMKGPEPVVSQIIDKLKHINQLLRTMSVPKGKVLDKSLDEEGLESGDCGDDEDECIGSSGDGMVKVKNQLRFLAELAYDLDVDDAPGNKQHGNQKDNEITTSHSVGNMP

[7] = biological target: monkey GPC3-His protein (monkey); assay: ELISA, coated monkey GPC3-His, antibody 1 nM
[8] = biological target: murine GPC3-His protein (murine) (UniProt Q8CFZ4); assay: ELISA, coated murine GPC3-His, antibody 10 nM
[9] = biological target: human GPC3, full length, on cells (human) (UniProt P51654); assay: FACS on CHO-K1 clone CHOK1-hGPC3.3E9
[10] = biological target: monkey GPC3-His protein (monkey); assay: ELISA, coated monkey GPC3-His, antibody 0.01 nM
[11] = biological target: human GPC3-His protein (human) (UniProt P51654); assay: ELISA, coated human GPC3-His, antibody 0.001 nM
[12] = biological target: human GPC3-His protein (human) (UniProt P51654); assay: ELISA, coated human GPC3-His, antibody 10 nM
[13] = biological target: murine GPC3-His protein (murine) (UniProt Q8CFZ4); assay: ELISA, coated murine GPC3-His, antibody 0.01 nM
[14] = biological target: human GPC3-His protein (human) (UniProt P51654); assay: ELISA, coated human GPC3-His, antibody 100 nM
[15] = biological target: murine GPC3-His protein (murine) (UniProt Q8CFZ4); assay: ELISA, coated murine GPC3-His, antibody 0.001 nM
[16] = biological target: monkey GPC3-His protein (monkey); assay: ELISA, coated monkey GPC3-His, antibody 100 nM
[17] = biological target: Polypeptide GC3pep of human GPC3 (Ala524-Lys563) (human); assay: ELISA, coated GC3pep, antibody 0.01 nM
[18] = biological target: Polypeptide GC3pep of human GPC3 (Ala524-Lys563) (human); assay: ELISA, coated GC3pep, antibody 1 nM
[19] = biological target: human GPC3-His protein (human) (UniProt P51654); assay: ELISA, coated human GPC3-His, antibody 0.1 nM
[20] = biological target: murine GPC3-His protein (murine) (UniProt Q8CFZ4); assay: ELISA, coated murine GPC3-His, antibody 0.01 nM; remark: listed apart in the source
[21] = biological target: monkey GPC3-His protein (monkey); assay: ELISA, coated monkey GPC3-His, antibody 0.0001 nM
[22] = biological target: human GPC3-His protein (human) (UniProt P51654); assay: ELISA, coated human GPC3-His, antibody 10 nM; remark: listed apart in the source
[23] = biological target: murine GPC3-His protein (murine) (UniProt Q8CFZ4); assay: ELISA, coated murine GPC3-His, antibody 0.0001 nM
[24] = biological target: murine GPC3-His protein (murine) (UniProt Q8CFZ4); assay: ELISA, coated murine GPC3-His, antibody 0.001 nM; remark: listed apart in the source
[25] = biological target: human GPC3, full length, on cells (human) (UniProt P51654); assay: FACS on CHO-K1 clone CHOK1-hGPC3.2B5
[26] = biological target: human GPC3-His protein (human) (UniProt P51654); assay: ELISA, coated human GPC3-His, antibody 100 nM; remark: listed apart in the source
[27] = biological target: monkey GPC3-His protein (monkey); assay: ELISA, coated monkey GPC3-His, antibody 100 nM; remark: listed apart in the source
[28] = biological target: murine GPC3-His protein (murine) (UniProt Q8CFZ4); assay: ELISA, coated murine GPC3-His, antibody 1 nM
[29] = biological target: monkey GPC3-His protein (monkey); assay: ELISA, coated monkey GPC3-His, antibody 0.1 nM
[30] = biological target: monkey GPC3-His protein (monkey); assay: ELISA, coated monkey GPC3-His, antibody 10 nM; remark: listed apart in the source
[31] = biological target: monkey GPC3-His protein (monkey); assay: ELISA, coated monkey GPC3-His, antibody 0.01 nM; remark: listed apart in the source
[32] = biological target: human GPC3-His protein (human) (UniProt P51654); assay: ELISA, coated human GPC3-His, antibody 1 nM
[33] = biological target: human GPC3-His protein (human) (UniProt P51654); assay: ELISA, coated human GPC3-His, antibody 0.01 nM
[34] = biological target: murine GPC3-His protein (murine) (UniProt Q8CFZ4); assay: ELISA, coated murine GPC3-His, antibody 0.0001 nM; remark: listed apart in the source
[35] = biological target: monkey GPC3-His protein (monkey); assay: ELISA, coated monkey GPC3-His, antibody 0.1 nM; remark: listed apart in the source
[36] = biological target: Polypeptide GC3pep of human GPC3 (Ala524-Lys563) (human); assay: ELISA, coated GC3pep, antibody 0.0001 nM
[37] = biological target: murine GPC3-His protein (murine) (UniProt Q8CFZ4); assay: ELISA, coated murine GPC3-His, antibody 10 nM; remark: listed apart in the source
[38] = biological target: human GPC3, full length, on cells (human) (UniProt P51654); assay: FACS on HepG2 cells
[39] = biological target: murine GPC3-His protein (murine) (UniProt Q8CFZ4); assay: ELISA, coated murine GPC3-His, antibody 100 nM
[40] = biological target: human GPC3-His protein (human) (UniProt P51654); assay: ELISA, coated human GPC3-His, antibody 1 nM; remark: listed apart in the source
[41] = biological target: human GPC3-His protein (human) (UniProt P51654); assay: ELISA, coated human GPC3-His, antibody 0.0001 nM
[42] = biological target: murine GPC3-His protein (murine) (UniProt Q8CFZ4); assay: ELISA, coated murine GPC3-His, antibody 100 nM; remark: listed apart in the source
[43] = biological target: human GPC3, full length, on cells (human) (UniProt P51654); assay: FACS on CHO-K1-human GPC3 cells
[44] = biological target: human GPC3, full length, on cells (human) (UniProt P51654); assay: FACS on HepG2 cells, control in the row of Y035
[45] = biological target: human GPC3, full length, on cells (human) (UniProt P51654); assay: FACS on HepG2 cells, control in the row of T2-23
[46] = biological target: monkey GPC3-His protein (monkey); assay: ELISA, coated monkey GPC3-His, antibody 0.0001 nM; remark: listed apart in the source
[47] = biological target: Polypeptide GC3pep of human GPC3 (Ala524-Lys563) (human); assay: ELISA, coated GC3pep, antibody 100 nM; remark: listed apart in the source
[48] = biological target: human GPC3-His protein (human) (UniProt P51654); assay: ELISA, coated human GPC3-His, antibody 0.0001 nM; remark: listed apart in the source
[49] = biological target: Polypeptide GC3pep of human GPC3 (Ala524-Lys563) (human); assay: ELISA, coated GC3pep, antibody 10 nM
[50] = biological target: human GPC3-His protein (human) (UniProt P51654); assay: ELISA, coated human GPC3-His, antibody 0.1 nM; remark: listed apart in the source
[51] = biological target: human GPC3-His protein (human) (UniProt P51654); assay: ELISA, coated human GPC3-His, antibody 0.01 nM; remark: listed apart in the source
[52] = biological target: monkey GPC3-His protein (monkey); assay: ELISA, coated monkey GPC3-His, antibody 1 nM; remark: listed apart in the source
[53] = biological target: Polypeptide GC3pep of human GPC3 (Ala524-Lys563) (human); assay: ELISA, coated GC3pep, antibody 0.1 nM
[54] = biological target: human GPC3-His protein (human) (UniProt P51654); assay: ELISA, coated human GPC3-His, antibody 0.001 nM; remark: listed apart in the source
[55] = biological target: monkey GPC3-His protein (monkey); assay: ELISA, coated monkey GPC3-His, antibody 0.001 nM
[56] = biological target: monkey GPC3-His protein (monkey); assay: ELISA, coated monkey GPC3-His, antibody 0.001 nM; remark: listed apart in the source

**Q.** Which Max MFI [1] does the source give for human IgG1 subtype control (antibody) here?
**A.** 95

**Q.** What about the OD450 [2] of the same substance?
**A.** 0.047

**Q.** And the Mean fluorescence intensity of cells [3]?
**A.** 19.3

**Q.** What about the OD450 [4] of the same substance?
**A.** 0.069

**Q.** What about the OD450 [5] of the same substance?
**A.** 0.046

**Q.** And the OD450 [6]?
**A.** 0.05

**Q.** What about the OD450 [7] of the same substance?
**A.** 0.044

**Q.** And the OD450 [8]?
**A.** 0.07

**Q.** And the Mean fluorescence intensity of cells [9]?
**A.** 19.3

**Q.** And the OD450 [10]?
**A.** 0.044

**Q.** And the OD450 [11]?
**A.** 0.048

**Q.** What about the OD450 [12] of the same substance?
**A.** 0.1

**Q.** What about the OD450 [13] of the same substance?
**A.** 0.05

**Q.** What about the OD450 [14] of the same substance?
**A.** 0.072

**Q.** What about the OD450 [15] of the same substance?
**A.** 0.05

**Q.** And the OD450 [16]?
**A.** 0.056

**Q.** What about the OD450 [17] of the same substance?
**A.** 0.046

**Q.** What about the OD450 [18] of the same substance?
**A.** 0.04

**Q.** And the OD450 [19]?
**A.** 0.09

**Q.** What about the OD450 [20] of the same substance?
**A.** 0.052

**Q.** And the OD450 [21]?
**A.** 0.048

**Q.** What about the OD450 [22] of the same substance?
**A.** 0.05

**Q.** And the OD450 [23]?
**A.** 0.049

**Q.** And the OD450 [24]?
**A.** 0.051

**Q.** And the Mean fluorescence intensity of cells [25]?
**A.** 19.3

**Q.** And the OD450 [26]?
**A.** 0.09

**Q.** And the OD450 [27]?
**A.** 0.19

**Q.** What about the OD450 [28] of the same substance?
**A.** 0.05

**Q.** What about the OD450 [29] of the same substance?
**A.** 0.045

**Q.** What about the OD450 [30] of the same substance?
**A.** 0.08

**Q.** And the OD450 [31]?
**A.** 0.05

**Q.** And the OD450 [32]?
**A.** 0.048

**Q.** What about the OD450 [33] of the same substance?
**A.** 0.048

**Q.** And the OD450 [34]?
**A.** 0.05

**Q.** And the OD450 [35]?
**A.** 0.04

**Q.** What about the OD450 [36] of the same substance?
**A.** 0.06

**Q.** What about the OD450 [37] of the same substance?
**A.** 0.055

**Q.** What about the Max MFI [38] of the same substance?
**A.** 110

**Q.** And the OD450 [39]?
**A.** 0.105

**Q.** And the OD450 [40]?
**A.** 0.09

**Q.** What about the OD450 [41] of the same substance?
**A.** 0.047

**Q.** And the OD450 [42]?
**A.** 0.08

**Q.** What about the Max MFI [43] of the same substance?
**A.** 82

**Q.** What about the Mean fluorescence intensity of cells [44] of the same substance?
**A.** 137

**Q.** What about the Mean fluorescence intensity of cells [45] of the same substance?
**A.** 137

**Q.** What about the OD450 [46] of the same substance?
**A.** 0.05

**Q.** And the OD450 [47]?
**A.** 0.06

**Q.** And the OD450 [48]?
**A.** 0.09

**Q.** What about the OD450 [49] of the same substance?
**A.** 0.04

**Q.** And the OD450 [50]?
**A.** 0.05

**Q.** What about the OD450 [51] of the same substance?
**A.** 0.1

**Q.** What about the OD450 [52] of the same substance?
**A.** 0.05

**Q.** What about the OD450 [53] of the same substance?
**A.** 0.04

**Q.** And the OD450 [54]?
**A.** 0.09

**Q.** And the OD450 [55]?
**A.** 0.04

**Q.** And the OD450 [56]?
**A.** 0.044
